Data taken from the supplement of paper PMC10065799, “High-throughput profiling of sequence recognition by tyrosine kinases and SH2 domains using bacterial peptide display” (eLife, 2023).

Legend:
[1] = tested on: AncSZ; assay: phosphorylation enrichment, bacterial display (enrichment ratio); higher = better substrate or ligand; peptides without Tyr show the background
[2] = molecular target: EPHB1 (UniProt P54762); assay: as above
[3] = molecular target: EPHB2 (UniProt P29323); assay: as above
[4] = molecular target: FGFR1 (UniProt P11362); assay: as above
Chain of FGFR1 (P11362 whole entry, looked up): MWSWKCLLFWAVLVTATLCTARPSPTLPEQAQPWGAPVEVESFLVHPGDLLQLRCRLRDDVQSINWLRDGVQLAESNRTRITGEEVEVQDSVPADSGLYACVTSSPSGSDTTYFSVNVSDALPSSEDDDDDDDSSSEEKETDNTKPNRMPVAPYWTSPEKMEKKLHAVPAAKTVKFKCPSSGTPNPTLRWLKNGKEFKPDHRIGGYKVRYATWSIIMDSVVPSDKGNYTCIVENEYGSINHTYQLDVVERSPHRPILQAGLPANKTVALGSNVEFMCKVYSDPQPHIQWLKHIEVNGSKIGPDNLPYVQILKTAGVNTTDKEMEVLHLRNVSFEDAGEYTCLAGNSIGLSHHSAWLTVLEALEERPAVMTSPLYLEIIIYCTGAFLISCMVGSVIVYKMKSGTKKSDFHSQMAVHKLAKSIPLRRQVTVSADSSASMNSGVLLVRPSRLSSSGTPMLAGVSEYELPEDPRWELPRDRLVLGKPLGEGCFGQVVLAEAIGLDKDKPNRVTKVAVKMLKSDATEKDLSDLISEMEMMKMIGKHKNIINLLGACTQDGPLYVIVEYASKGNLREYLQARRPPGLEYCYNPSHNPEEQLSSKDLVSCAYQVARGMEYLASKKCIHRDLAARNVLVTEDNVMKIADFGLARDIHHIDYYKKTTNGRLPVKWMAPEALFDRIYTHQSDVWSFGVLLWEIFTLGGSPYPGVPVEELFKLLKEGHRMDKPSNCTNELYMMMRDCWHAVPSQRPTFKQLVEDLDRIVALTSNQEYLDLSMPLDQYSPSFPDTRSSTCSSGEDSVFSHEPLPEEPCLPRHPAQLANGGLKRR

[5] = molecular target: FGFR3 (UniProt P22607); assay: as above
Chain of FGFR3 (P22607 whole entry, looked up): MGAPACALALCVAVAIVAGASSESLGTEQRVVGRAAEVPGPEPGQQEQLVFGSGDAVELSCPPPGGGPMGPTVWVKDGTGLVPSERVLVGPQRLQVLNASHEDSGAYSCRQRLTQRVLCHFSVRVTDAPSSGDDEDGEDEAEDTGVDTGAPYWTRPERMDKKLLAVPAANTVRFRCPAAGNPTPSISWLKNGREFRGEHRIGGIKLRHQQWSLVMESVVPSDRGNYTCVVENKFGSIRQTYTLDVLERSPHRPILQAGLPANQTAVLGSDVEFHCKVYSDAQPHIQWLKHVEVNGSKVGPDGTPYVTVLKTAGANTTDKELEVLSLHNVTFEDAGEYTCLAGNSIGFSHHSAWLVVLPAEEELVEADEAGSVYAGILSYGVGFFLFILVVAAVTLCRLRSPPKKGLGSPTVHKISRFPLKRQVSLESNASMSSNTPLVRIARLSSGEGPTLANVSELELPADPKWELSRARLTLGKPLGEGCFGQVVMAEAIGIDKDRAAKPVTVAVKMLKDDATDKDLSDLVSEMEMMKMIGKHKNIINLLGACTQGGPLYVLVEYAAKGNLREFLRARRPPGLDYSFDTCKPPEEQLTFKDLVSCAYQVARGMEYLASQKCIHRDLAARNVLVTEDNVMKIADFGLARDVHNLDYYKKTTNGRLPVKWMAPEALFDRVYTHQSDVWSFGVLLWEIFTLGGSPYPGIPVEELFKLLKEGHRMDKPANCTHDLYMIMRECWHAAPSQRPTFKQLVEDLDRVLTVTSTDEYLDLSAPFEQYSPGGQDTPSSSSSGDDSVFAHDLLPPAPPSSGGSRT

[6] = tested on: Fer (mouse); assay: as above
[7] = molecular target: Fes (UniProt P07332); assay: as above
Chain of Fes (P07332 whole entry, looked up): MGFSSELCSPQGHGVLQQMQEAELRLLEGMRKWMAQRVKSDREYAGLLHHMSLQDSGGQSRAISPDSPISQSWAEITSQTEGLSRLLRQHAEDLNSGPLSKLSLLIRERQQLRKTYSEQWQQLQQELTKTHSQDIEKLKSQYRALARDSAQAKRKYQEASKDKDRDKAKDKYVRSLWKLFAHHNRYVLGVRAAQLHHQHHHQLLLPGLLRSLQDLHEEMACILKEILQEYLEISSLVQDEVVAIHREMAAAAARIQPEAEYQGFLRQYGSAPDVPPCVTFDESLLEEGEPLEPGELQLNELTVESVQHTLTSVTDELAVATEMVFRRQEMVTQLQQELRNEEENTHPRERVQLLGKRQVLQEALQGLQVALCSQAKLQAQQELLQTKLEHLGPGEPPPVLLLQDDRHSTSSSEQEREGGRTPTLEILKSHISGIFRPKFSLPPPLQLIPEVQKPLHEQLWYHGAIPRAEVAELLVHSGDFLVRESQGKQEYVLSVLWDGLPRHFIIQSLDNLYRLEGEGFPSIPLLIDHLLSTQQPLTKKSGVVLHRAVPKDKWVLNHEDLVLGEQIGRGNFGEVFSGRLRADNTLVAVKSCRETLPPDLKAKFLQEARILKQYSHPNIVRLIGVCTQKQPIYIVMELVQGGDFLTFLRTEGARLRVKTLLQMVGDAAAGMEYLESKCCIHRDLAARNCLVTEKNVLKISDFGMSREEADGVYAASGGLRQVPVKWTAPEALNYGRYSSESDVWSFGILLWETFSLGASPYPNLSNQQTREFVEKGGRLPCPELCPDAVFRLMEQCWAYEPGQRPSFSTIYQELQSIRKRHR

[8] = molecular target: Fyn (UniProt P06241); assay: as above
Chain of Fyn (P06241 whole entry, looked up): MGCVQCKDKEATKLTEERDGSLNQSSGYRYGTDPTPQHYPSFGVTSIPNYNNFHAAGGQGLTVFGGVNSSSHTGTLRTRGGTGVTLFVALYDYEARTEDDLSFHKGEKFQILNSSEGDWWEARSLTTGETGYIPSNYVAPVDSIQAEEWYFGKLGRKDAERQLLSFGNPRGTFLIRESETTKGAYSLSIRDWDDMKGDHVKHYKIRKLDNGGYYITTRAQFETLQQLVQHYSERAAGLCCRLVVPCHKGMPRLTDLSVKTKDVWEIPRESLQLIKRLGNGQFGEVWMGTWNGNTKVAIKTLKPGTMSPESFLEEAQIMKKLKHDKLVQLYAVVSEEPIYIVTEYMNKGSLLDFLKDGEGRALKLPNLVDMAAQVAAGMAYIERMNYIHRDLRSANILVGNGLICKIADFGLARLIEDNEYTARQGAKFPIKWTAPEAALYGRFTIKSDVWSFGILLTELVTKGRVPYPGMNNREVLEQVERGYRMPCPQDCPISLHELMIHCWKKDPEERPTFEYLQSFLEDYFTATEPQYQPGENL

[9] = molecular target: Hck (UniProt P08631); assay: as above
Chain of Hck (P08631 whole entry, looked up): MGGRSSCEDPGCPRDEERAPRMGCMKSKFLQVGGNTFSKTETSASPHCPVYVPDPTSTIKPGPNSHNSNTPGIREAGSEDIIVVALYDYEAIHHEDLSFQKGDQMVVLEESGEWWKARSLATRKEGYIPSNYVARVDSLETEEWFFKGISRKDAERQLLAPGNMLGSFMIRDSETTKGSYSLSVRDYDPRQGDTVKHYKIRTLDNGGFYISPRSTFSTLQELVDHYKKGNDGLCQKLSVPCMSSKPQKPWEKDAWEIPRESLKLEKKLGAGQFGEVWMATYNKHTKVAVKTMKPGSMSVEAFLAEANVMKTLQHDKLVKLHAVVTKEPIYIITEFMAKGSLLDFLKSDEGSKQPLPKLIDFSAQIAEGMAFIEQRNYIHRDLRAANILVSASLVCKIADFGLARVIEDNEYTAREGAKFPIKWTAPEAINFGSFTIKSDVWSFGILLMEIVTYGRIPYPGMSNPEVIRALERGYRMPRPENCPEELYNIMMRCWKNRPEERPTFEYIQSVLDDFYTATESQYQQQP

[10] = molecular target: Jak2 (UniProt O60674); assay: as above
[11] = molecular target: MERTK (UniProt Q12866); assay: as above
[12] = tested on: c-Abl (mouse); assay: as above
[13] = tested on: c-Src; assay: as above
[14] = molecular target: Grb2 SH2 (UniProt P62993); assay: SH2 binding enrichment of the phosphorylated peptide, bacterial display (enrichment ratio); higher = better substrate or ligand; peptides without Tyr show the background
Chain of Grb2 SH2 (P62993 whole entry, looked up): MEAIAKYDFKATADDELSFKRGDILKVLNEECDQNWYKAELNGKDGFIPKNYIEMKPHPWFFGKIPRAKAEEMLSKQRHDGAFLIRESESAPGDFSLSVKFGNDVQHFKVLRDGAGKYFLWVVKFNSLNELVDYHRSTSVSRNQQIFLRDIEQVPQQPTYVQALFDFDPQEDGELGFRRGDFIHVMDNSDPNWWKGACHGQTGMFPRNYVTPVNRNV

[15] = molecular target: SHP2-C SH2; assay: as above
[16] = molecular target: c-Src SH2; assay: as above
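Wherever SH2 binding enrichment of the phosphorylated peptide, bacterial display is given: peptide library displayed on the E. coli surface as eCPX fusions, selected cells deep-sequenced, score is each peptide's frequency after selection divided by its frequency in the input.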
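Wherever phosphorylation enrichment, bacterial display is given: 11-residue human phosphosite peptides and single-mutation variants displayed on the E. coli surface, counted by deep sequencing, each peptide's frequency after selection divided by its frequency in the unselected input library; frequency after pTyr selection over input frequency; kinase dosed for 20-30% of maximal phosphorylation in three min.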

Chain of EPHB2 (P29323 whole entry, looked up): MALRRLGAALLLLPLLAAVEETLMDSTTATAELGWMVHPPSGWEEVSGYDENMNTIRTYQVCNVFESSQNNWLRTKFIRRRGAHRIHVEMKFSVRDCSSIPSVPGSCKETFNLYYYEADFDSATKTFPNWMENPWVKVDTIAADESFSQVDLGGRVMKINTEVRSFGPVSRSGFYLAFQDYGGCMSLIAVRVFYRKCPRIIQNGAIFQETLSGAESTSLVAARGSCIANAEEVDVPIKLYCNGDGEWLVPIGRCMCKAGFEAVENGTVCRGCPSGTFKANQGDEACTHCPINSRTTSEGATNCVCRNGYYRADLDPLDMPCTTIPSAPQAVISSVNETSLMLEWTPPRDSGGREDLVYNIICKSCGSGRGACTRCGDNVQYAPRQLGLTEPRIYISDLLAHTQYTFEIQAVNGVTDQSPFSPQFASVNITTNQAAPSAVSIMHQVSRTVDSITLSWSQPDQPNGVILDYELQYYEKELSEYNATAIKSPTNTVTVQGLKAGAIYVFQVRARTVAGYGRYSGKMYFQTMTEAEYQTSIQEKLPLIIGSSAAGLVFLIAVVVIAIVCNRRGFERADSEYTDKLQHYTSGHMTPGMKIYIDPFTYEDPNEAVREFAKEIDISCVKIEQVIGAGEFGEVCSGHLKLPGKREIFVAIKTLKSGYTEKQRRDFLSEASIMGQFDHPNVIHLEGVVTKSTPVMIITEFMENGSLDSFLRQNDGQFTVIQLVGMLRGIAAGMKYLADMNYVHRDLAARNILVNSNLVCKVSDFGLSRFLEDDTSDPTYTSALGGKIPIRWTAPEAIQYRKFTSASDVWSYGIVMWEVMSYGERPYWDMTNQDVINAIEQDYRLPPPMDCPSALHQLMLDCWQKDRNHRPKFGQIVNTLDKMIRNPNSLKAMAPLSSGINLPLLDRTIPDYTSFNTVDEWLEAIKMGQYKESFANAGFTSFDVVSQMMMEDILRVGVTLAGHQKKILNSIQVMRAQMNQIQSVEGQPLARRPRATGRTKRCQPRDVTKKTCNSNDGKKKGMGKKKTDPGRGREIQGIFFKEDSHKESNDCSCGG

Sequence	phosphorylation enrichment [1]	phosphorylation enrichment [2]	phosphorylation enrichment [3]	phosphorylation enrichment [4]	phosphorylation enrichment [5]	phosphorylation enrichment [6]	phosphorylation enrichment [7]	phosphorylation enrichment [8]	phosphorylation enrichment [9]	phosphorylation enrichment [10]	phosphorylation enrichment [11]	phosphorylation enrichment [12]	phosphorylation enrichment [13]	SH2 binding enrichment [14]	SH2 binding enrichment [15]	SH2 binding enrichment [16]
FQRLRYIKQLG [SAMHD1_Y146]	0.8	0.483	0.592	0.42	0.509	0.42	0.898	0.399	0.454	0.652	0.472	0.617	0.473	0.813	0.679	0.479
FRGFSYDDIPD [TMEM230_Y112_YF]	1.35	0.739	0.71	0.474	0.737	0.405	1.44	0.438	0.609	1.39	0.565	0.895	0.485	0.882	0.595	7.24
FRNSLYAPDFS [FAM92A_Y226_YF]	0.755	2.04	1.35	0.891	0.743	0.911	0.899	1.02	1.23	0.812	8.67	0.563	1.25	0.674	0.736	0.511
FRPPFYHRDCM [HGD_Y334_N337D_YF]	0.895	0.611	0.659	0.558	0.724	0.577	1.1	0.459	0.507	0.942	0.471	0.735	0.477	1.03	1.06	1.02
FSAPNYCYRCG [PPP2CA_Y265]	0.656	0.498	0.455	0.446	0.45	0.327	0.564	0.458	0.414	0.501	0.423	0.452	0.382	1.1	0.933	0.762
FSCLPCGRLAY [SLC52A2_Y305_Y305C]	0.832	0.431	0.485	0.481	0.54	0.351	0.772	0.425	0.431	0.724	0.688	0.584	0.45	1.46	1.34	1.54
FSKDIYKRVTG [PANK2_Y405_N404I_YF]	0.516	0.218	0.382	0.431	0.413	0.355	0.58	0.444	0.423	0.407	0.334	0.529	0.398	0.763	0.598	0.41
FSQQTYFRVSN [ABCD1_Y180_YF]	0.902	0.654	0.564	1.23	1.19	0.415	0.723	0.435	0.749	3.23	0.41	0.625	0.931	0.887	1.16	1.09
